Measurements as given in patent US20180064809A1 (University of Texas, published 2018).

T1: Human DC-HIL (human, UniProt Q14956 23-572)
T1 sequence (looked up): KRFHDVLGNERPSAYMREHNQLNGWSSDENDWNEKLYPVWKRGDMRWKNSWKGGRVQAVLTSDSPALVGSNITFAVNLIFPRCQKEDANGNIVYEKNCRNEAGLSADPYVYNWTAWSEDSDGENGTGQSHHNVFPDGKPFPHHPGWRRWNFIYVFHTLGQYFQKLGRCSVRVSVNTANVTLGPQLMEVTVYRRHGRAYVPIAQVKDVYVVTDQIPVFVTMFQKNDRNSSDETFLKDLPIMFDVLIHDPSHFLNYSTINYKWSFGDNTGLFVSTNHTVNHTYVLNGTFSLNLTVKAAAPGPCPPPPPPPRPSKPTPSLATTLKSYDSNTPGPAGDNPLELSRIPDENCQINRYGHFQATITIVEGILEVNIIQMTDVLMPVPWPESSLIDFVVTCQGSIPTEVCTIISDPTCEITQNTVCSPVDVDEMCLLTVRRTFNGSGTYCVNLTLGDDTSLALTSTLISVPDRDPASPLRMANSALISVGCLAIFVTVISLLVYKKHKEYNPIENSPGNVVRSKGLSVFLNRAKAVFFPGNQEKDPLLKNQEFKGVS


What was measured:
[1] = biological target: syndecan-4 (SD-4) on mouse T cells (mouse) (UniProt O35988); test: cell-based or functional assay
syndecan-4 (SD-4) on mouse T cells (mouse), sequence (O35988 24-198): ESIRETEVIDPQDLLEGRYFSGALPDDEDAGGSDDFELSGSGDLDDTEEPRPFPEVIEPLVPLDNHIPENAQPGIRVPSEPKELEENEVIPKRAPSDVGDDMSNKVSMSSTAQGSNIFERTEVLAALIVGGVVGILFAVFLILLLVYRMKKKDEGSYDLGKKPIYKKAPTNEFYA

[2] = biological target: T1, Human DC-HIL; test: cell-based or functional assay

restoration of pmel-1 T cell activation suppressed by melanoma-MDSC [1] [%]	T cell IFN-γ response against control IgG-treated cultures, kidney cancer [2]	Molecule
< 90		DC-HIL-Fc fusion protein (from UniProt Q99P91 23-502)
	20 fold greater than control IgG-treated cultures	3D5 mouse anti-human DC-HIL mAb (antibody, IgG1, V domains shown) VH: QVQLQQSGAELVKPGTSVKLSCKASGYTFTNYYMYWVKQRPGQGLEWIGEINTRNGGNRFNEKFKNKAILTVDKSSNTAYIQVSSLTSEDSAVYYCTTGFAYWGQGTLVTVSA VL: QIVLTQSPAIMSASLGEEITLTCSASSSISYMHWYQQKSGTSPKLLIYTTSTLSSGVPSRFSGSGSGTFYSLTISSVEAEDAADYYCHQSSSYPYTFGGGTKLEIKR
